Data on two molecules can be found in US20180273626A1 (Stanford University, published 2018).

Substitutions are numbered along the chain they refer to. In names and notes the source's numbering stands.

Assay [1] addresses T1, FcεRI on primary human basophils (human, UniProt P12319 26-257).
T1 construct: whole, on cells; on cells it stands with gamma chains (and a beta chain); also called FcεRIα on basophils; E2_79-treated basophils
T1 sequence (looked up): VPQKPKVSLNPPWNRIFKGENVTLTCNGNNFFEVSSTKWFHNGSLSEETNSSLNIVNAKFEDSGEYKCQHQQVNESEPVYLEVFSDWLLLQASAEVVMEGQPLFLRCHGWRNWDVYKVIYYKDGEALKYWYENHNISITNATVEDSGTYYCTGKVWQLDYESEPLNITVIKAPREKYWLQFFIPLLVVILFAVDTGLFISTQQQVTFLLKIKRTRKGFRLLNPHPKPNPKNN
Description: flow cytometry on primary human basophils, anti-biotin staining. From the text:
(§1) Blood was drawn from two healthy volunteers and a third volunteer with a history of food allergy ranging in age from 21 to 37 (the protocol for this study was approved by the Institutional Review Board of Stanford University, and all informed consent was obtained from all subjects). Blood was collected in heparin vacutainer tubes (BD), and washed in 10 blood volumes of BF buffer (RPMI-1640 (Life Technologies) supplemented with 10% fetal calf serum (FCS; Gibco) and 1% penicillin/streptomycin (Gibco)). […] The following day cells were washed three times with BF buffer at 4° C. and stained for analysis.
(§2) Stained cells were then lysed with RBS lysis buffer (BioLegend) for 5 min at room temperature, and washed with FACS buffer (PBS pH 7.4 supplemented with 10% FCS). Data were collected on a DxP FACSCAN from Cytek Development in Fremont, Calif. (10 colors with three lasers—488, 639, 407) using FlowJo CE and analyzed using FlowJo (version 10).
On the technique in general: Flow cytometry measures light scatter and fluorescence of single cells or particles in a stream.

Assay [2] deals with T2, CD23 on B cells (human, UniProt P06734 1-321).
T2 construct: whole, on cells; also called CD23 receptor; CD23+ B-cells
T2 sequence (looked up): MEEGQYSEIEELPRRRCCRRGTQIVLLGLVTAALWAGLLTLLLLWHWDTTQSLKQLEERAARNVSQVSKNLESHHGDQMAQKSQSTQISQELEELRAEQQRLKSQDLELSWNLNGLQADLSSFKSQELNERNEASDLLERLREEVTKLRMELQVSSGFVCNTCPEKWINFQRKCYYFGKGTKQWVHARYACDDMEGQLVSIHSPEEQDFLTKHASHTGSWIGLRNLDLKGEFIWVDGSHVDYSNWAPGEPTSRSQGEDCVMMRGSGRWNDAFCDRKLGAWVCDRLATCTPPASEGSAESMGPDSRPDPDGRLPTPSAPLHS
Description: summary sentence of Example 1.

Assay [3] addresses T2, CD23 on B cells. Description: flow cytometry on CD23+ B cells.
Description: as §1, §2

B1: IgE-R419N-Fc3-4 (other)
chain: CADSNPRGVSAYLSRPSPFDLFIRKSPTITCLVVDLAPSKGTVNLTWSRASGKPVNHSTRKEEKQRNGTLTVTSTLPVGTRDWIEGETYQCNVTHPHLPRALMRSTTKTSGPRAAPEVYAFATPEWPGSRDKRTLACLIQNFMPEDISVQWLHNEVQLPDARHSTTQPRKTKGSGFFVFSRLEVTRAEWEQKDEFICRAVHEAASPSQTVQRAVSVNP
modifications: additional N-linked glycan at N419 (Asn-92 of SEQ ID NO: 2)
notes: Mammalian derived (HEK-6E); biotinylated in the basophil exchange assays; also called R419N-IgE-Fc3-4; R419N mutant
For B1, the binding result (in assay [1]; with CD23 on B cells [2]) was “binds” each time.

B2: IgE-Fc3-4 (other)
chain: B1 chain with N92R
notes: Made both in insect cells (High Five) and in mammalian cells (HEK-6E); the mammalian protein, biotinylated, was used in the cell assays; also called wild-type IgE-Fc3-4; WT IgE-Fc3-4
For B2, the binding result (in assay [1]; with CD23 on B cells [3]) was “binds” in each case.
